Results reported in PMC3992947.
Blank lines part the entries; values can stand above or below the substance they belong to.

Legend:
[1] = target: GST-EnaEVH1 (Drosophila); assay: pull-down; purified proteins; DiaFH1-Cterm and glutathione-Sepharose beads constant, increasing GST-EVH1, 20 min at 25°; supernatants by SDS-PAGE, bound fraction fit to a quadratic equation
[2] = target: DiaFH1FH2 (Drosophila)
[3] = target: Mg-ATP-actin (actin filament barbed ends) (UniProt P68135); assay: TIRF microscopy of single actin filaments; Oregon-green-labeled actin with Drosophila profilin and quantum-dot-clustered biotin-SNAP protein, flow cell at 23°C; barbed end residence time from a single exponential fit

Kd [1]: 13.3 µM
Substance: DiaFH1-carboxyl-terminus (Cterm) (domain or fragment)

concentration of barbed ends nucleated by 10 nM DiaFH1FH2 (from pyrene assays without profilin), 0 to 5.8 μM GST-EnaEVH1 [2]: 0.27 nM
Substance: GST-EnaEVH1 (domain or fragment)

mean barbed end residence time [3]: 95.2 s
Substance: QD-biotin-SNAP-EnaΔLinker (natural protein)
